Data set [1] addresses LjARPC3 (yeast two-hybrid fusion) (Lotus japonicus). Description: two-hybrid; S. cerevisiae AH109; quantitative β-galactosidase (lacZ) activity under the control of the GAL4 promoter.
The target in data set [2] is NIN C-terminal half (RWP-RK domain) (Lotus japonicus, UniProt Q9S7B1 520-878). Kind of data set: EMSA; 0.5 or 1 ug protein; unlabeled competitor 5x, 10x or 50x; EMSA with LightShift chemiluminescent kit (Thermo); buffer, salt, pH and temperature not stated. As to conditions: protein: recombinant; tags: C-terminal His; label: biotin; blunt. A general note: In EMSA bound probe runs differently from free probe, usually more slowly.
NIN C-terminal half (RWP-RK domain), sequence (Q9S7B1 entry or part of it): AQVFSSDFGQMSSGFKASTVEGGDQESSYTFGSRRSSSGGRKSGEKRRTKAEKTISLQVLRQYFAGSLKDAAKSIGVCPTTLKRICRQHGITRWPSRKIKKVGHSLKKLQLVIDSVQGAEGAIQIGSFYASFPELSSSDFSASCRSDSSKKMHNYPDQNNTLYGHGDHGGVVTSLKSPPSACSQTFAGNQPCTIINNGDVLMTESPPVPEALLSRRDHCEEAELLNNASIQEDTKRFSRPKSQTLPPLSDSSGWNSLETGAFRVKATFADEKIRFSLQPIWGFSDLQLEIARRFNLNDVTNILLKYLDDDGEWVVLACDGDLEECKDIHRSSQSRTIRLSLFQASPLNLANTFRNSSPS

Regarding “SCARN C-terminal WA domain (yeast two-hybrid fusion) (domain or fragment)”, the β-galactosidase (LacZ) activity in data set [1] stood at 18.1 units.

B1: SCARN promoter S3 (dsDNA)
DNA 1: AGTCAAGAGGATTGCAGAAGAAAGTAGGGTTTGTGAATCG
DNA 2: CGATTCACAAACCCTACTTTCTTCTGCAATCCTCTTGACT
Regarding B1, the binding result in data set [2] was “binds”.

B2: SCARN promoter S2 (dsDNA)
DNA 1: AAGAGGTGAAACTGAAGGAGTCAAGAGGATTGCAGAAGAA
DNA 2: TTCTTCTGCAATCCTCTTGACTCCTTCAGTTTCACCTCTT
Take B2: the binding result in data set [2] is reported as “binds”.

B3: SCARN promoter S1 (dsDNA)
DNA 1: GTAGTAGAGAGATAGAGTGAGTGAAAGGGTTTGAGGAATG
DNA 2: CATTCCTCAAACCCTTTCACTCACTCTATCTCTCTACTAC
Turning to B3, in data set [2], the binding result is given as “binds”.

These data come from PMC4627827, “SCARN a Novel Class of SCAR Protein That Is Required for Root-Hair Infection during Legume Nodulation”.
